To fix the notation:
B1: FLAG-AT2R-CFP (angiotensin II type 2 receptor) [human] / HA-AT1R-YFP (angiotensin II type 1 receptor) [human] (parent)
chain 1: MKGNSTLATTSKNITSGLHFGLVNISGNNESTLNCSQKPSDKHLDAIPILYYIIFVIGFLVNIVVVTLFCCQKGPKKVSSIYIFNLAVADLLLLATLPLWATYYSYRYDWLFGPVMCKVFGSFLTLNMFASIFFITCMSVDRYQSVIYPFLSQRRNPWQASYIVPLVWCMACLSSLPTFYFRDVRTIEYLGVNACIMAFPPEKYAQWSAGIALMKNILGFIIPLIFIATCYFGIRKHLLKTNSYGKNRITRDQVLKMAAAVVLAFIICWLPFHVLTFLDALAWMGVINSCEVIAVIDLALPFAILLGFTNSCVNPFLYCFVGNRFQQKLRSVFRVPITWLQGKRESMSCRKSSSLREMETFVS
chain 2: MILNSSTEDGIKRIQDDCPKAGRHNYIFVMIPTLYSIIFVVGIFGNSLVVIVIYFYMKLKTVASVFLLNLALADLCFLLTLPLWAVYTAMEYRWPFGNYLCKIASASVSFNLYASVFLLTCLSIDRYLAIVHPMKSRLRRTMLVAKVTCIIIWLLAGLASLPAIIHRNVFFIENTNITVCAFHYESQNSTLPIGLGLTKNILGFLFPFLIILTSYTLIWKALKKAYEIQKNKPRNDDIFKIIMAIVLFFFFSWIPHQIFTFLDVLIQLGIIRDCRIADIVDTAMPITICIAYFNNCLNPLFYGFLGKKFKRYFLQLLKYIPPKAKSHSNLSTKMSTLSYRPSDNVSSSTKKPAPCFEVE

The variants in the test derive from B1. The test is described as follows: FRET fluorescence microscopy in live HeLa cells (corrected FRET, FRETC). The note with it: with HA-AT1R-YFP (angiotensin II type 1 receptor) [human]; value read at the end of the time course (about 50 min after AII stimulation at time 0); HeLa cells 24 h after transfection; n = 4; parent: 1.3; read off a ….
Take chain 1 MKGNSTLATTSKNITSGLHFGLVNISGNNESTLNCSQKPSDKHLDAIPILYYIIFVIGFLVNIVVVTLFCCQKGPKKVSSIYIFNLAVADLLLLATLPLWATYYSYRYDWLFGPVMCKVFGSFLTLNMFASIFFITCMSVDRYQSVIYPFLSQRRNPWQASYIVPLVWCMACLSSLPTFYFRDVRTIEYLGVNACIMAFPPEKYAQWSAGIALMKNILGFIIPLIFIATCYFGIRKHLLKTNSYGKNRITRDQVLKMAAAVVLAFIICWLPFHVLTFLDALAWMGVINSCEVIAVIDLALPFAILLGFTNSCVNPFLYCFVGNRFQQKLRSVFRVPITWLQGKRESMSCRKAAALREMETFVS [chain 1 S352A S353A S354A]: the response was 0.97 -fold.

These data come from publication PMC4746669, “Attenuation of ligand-induced activation of angiotensin II type 1 receptor signaling by the type 2 receptor via protein kinase C” (Scientific Reports, 2016).
